Numbered stars: 1 amine (or outer) side, 2 acyl side, 3 side chain; on linkers, the order of the positions; unused ones are H or OH. Bridge positions count the residues as written; N and C are the ends. Side chains are listed from the residue outwards. Ends that are not written are not given here. * marks the point of attachment. C20 diacid = O=C(O)CCCCCCCCCCCCCCCCCCC(=O)*; γGlu = O=C(O)[C@H](CCC(=O)[*:2])N[*:1]; AEEA = NCCOCCOCC(=O)O
T1: human amylin receptor (amylin 3(a) receptor: human calcitonin receptor co-expressed with RAMP-3) (human, UniProt P30988 25-474; O60896 24-148, limits assumed)
T1 sequence (looked up) 1: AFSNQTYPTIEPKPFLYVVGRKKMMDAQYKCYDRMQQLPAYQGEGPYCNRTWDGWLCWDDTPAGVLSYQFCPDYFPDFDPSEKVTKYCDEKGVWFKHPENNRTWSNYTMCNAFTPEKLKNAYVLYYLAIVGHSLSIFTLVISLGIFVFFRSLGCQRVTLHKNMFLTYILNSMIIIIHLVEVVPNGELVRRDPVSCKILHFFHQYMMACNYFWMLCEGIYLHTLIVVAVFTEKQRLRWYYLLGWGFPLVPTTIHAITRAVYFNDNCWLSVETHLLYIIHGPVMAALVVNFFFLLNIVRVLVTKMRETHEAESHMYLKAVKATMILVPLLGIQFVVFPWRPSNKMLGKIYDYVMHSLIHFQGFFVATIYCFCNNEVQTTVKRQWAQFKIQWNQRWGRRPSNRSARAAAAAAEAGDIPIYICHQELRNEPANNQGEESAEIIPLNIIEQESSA
T1 sequence (looked up) 2: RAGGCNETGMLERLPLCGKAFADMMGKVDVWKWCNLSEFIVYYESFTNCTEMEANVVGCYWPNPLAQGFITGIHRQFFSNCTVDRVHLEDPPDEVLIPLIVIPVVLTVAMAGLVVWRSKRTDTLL

T2: human calcitonin receptor (human, UniProt P30988 25-474)
T2 sequence (looked up): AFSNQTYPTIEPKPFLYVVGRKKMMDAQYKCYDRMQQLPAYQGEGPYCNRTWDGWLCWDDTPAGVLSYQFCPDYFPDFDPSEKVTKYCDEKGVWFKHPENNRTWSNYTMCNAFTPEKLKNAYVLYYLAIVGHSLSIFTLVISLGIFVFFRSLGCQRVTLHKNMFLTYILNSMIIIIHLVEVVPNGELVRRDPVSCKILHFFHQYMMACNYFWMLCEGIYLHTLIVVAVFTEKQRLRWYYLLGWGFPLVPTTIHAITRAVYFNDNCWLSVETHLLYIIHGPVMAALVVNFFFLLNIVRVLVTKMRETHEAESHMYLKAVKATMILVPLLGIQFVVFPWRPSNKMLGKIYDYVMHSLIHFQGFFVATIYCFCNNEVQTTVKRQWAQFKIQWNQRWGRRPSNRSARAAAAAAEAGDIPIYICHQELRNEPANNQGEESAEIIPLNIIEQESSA


Tests used:
[1] = biological target: T1, human amylin receptor (amylin 3(a) …); assay: cell-based or functional assay
[2] = biological target: T2, human calcitonin receptor; assay: cell-based or functional assay

Row | Binder | hAmylin-R funct. EC50 [1] [nM] | Ratio hCT/hAmylin funct. (hCTR EC50 against hAmylin-R EC50) [2] | hCTR funct. EC50 [2] [nM]
1 | K([AEEA-γGlu-C20 diacid])CNTATCATQRLAHFLRHSSPNFGAIPSSTNVGSNTY-NH2 (disulfide 2-7; N-terminus assumed; SMILES CC[C@H](C)[C@H](NC(=O)[C@H](C)NC(=O)CNC(=O)[C@H](Cc1ccccc1)NC(=O)[C@H](CC(N)=O)NC(=O)[C@@H]1CCCN1C(=O)[C@H](CO)NC(=O)[C@H](CO)NC(=O)[C@H](Cc1c[nH]cn1)NC(=O)[C@H](CCCNC(=N)N)NC(=O)[C@H](CC(C)C)NC(=O)[C@H](Cc1ccccc1)NC(=O)[C@H](Cc1c[nH]cn1)NC(=O)[C@H](C)NC(=O)[C@H](CC(C)C)NC(=O)[C@H](CCCNC(=N)N)NC(=O)[C@H](CCC(N)=O)NC(=O)[C@@H](NC(=O)[C@H](C)NC(=O)[C@@H]1CSSC[C@H](NC(=O)[C@@H](N)CCCCNC(=O)COCCOCCNC(=O)CC[C@H](NC(=O)CCCCCCCCCCCCCCCCCCC(=O)O)C(=O)O)C(=O)N[C@@H](CC(N)=O)C(=O)N[C@@H]([C@@H](C)O)C(=O)N[C@@H](C)C(=O)N[C@@H]([C@@H](C)O)C(=O)N1)[C@@H](C)O)C(=O)N1CCC[C@H]1C(=O)N[C@@H](CO)C(=O)N[C@@H](CO)C(=O)N[C@H](C(=O)N[C@@H](CC(N)=O)C(=O)N[C@H](C(=O)NCC(=O)N[C@@H](CO)C(=O)N[C@@H](CC(N)=O)C(=O)N[C@H](C(=O)N[C@@H](Cc1ccc(O)cc1)C(N)=O)[C@@H](C)O)C(C)C)[C@@H](C)O, also called compound 69) | 0.094 | 13.3 | 1.25
2 | K([AEEA-γGlu-C20 diacid])CNTATCATQRLAHFLRHSSPNFGAIPSSTNVGPNTY-NH2 (disulfide 2-7; N-terminus assumed; SMILES CC[C@H](C)[C@H](NC(=O)[C@H](C)NC(=O)CNC(=O)[C@H](Cc1ccccc1)NC(=O)[C@H](CC(N)=O)NC(=O)[C@@H]1CCCN1C(=O)[C@H](CO)NC(=O)[C@H](CO)NC(=O)[C@H](Cc1c[nH]cn1)NC(=O)[C@H](CCCNC(=N)N)NC(=O)[C@H](CC(C)C)NC(=O)[C@H](Cc1ccccc1)NC(=O)[C@H](Cc1c[nH]cn1)NC(=O)[C@H](C)NC(=O)[C@H](CC(C)C)NC(=O)[C@H](CCCNC(=N)N)NC(=O)[C@H](CCC(N)=O)NC(=O)[C@@H](NC(=O)[C@H](C)NC(=O)[C@@H]1CSSC[C@H](NC(=O)[C@@H](N)CCCCNC(=O)COCCOCCNC(=O)CC[C@H](NC(=O)CCCCCCCCCCCCCCCCCCC(=O)O)C(=O)O)C(=O)N[C@@H](CC(N)=O)C(=O)N[C@@H]([C@@H](C)O)C(=O)N[C@@H](C)C(=O)N[C@@H]([C@@H](C)O)C(=O)N1)[C@@H](C)O)C(=O)N1CCC[C@H]1C(=O)N[C@@H](CO)C(=O)N[C@@H](CO)C(=O)N[C@H](C(=O)N[C@@H](CC(N)=O)C(=O)N[C@H](C(=O)NCC(=O)N1CCC[C@H]1C(=O)N[C@@H](CC(N)=O)C(=O)N[C@H](C(=O)N[C@@H](Cc1ccc(O)cc1)C(N)=O)[C@@H](C)O)C(C)C)[C@@H](C)O, also called compound 68) | 0.054 | 17.4 | 0.932
3 | K([AEEA-γGlu-C20 diacid])CNTATCATQRLAHFLRHSSPNFGAIPSSTPVGSNTY-NH2 (disulfide 2-7; N-terminus assumed; SMILES CC[C@H](C)[C@H](NC(=O)[C@H](C)NC(=O)CNC(=O)[C@H](Cc1ccccc1)NC(=O)[C@H](CC(N)=O)NC(=O)[C@@H]1CCCN1C(=O)[C@H](CO)NC(=O)[C@H](CO)NC(=O)[C@H](Cc1c[nH]cn1)NC(=O)[C@H](CCCNC(=N)N)NC(=O)[C@H](CC(C)C)NC(=O)[C@H](Cc1ccccc1)NC(=O)[C@H](Cc1c[nH]cn1)NC(=O)[C@H](C)NC(=O)[C@H](CC(C)C)NC(=O)[C@H](CCCNC(=N)N)NC(=O)[C@H](CCC(N)=O)NC(=O)[C@@H](NC(=O)[C@H](C)NC(=O)[C@@H]1CSSC[C@H](NC(=O)[C@@H](N)CCCCNC(=O)COCCOCCNC(=O)CC[C@H](NC(=O)CCCCCCCCCCCCCCCCCCC(=O)O)C(=O)O)C(=O)N[C@@H](CC(N)=O)C(=O)N[C@@H]([C@@H](C)O)C(=O)N[C@@H](C)C(=O)N[C@@H]([C@@H](C)O)C(=O)N1)[C@@H](C)O)C(=O)N1CCC[C@H]1C(=O)N[C@@H](CO)C(=O)N[C@@H](CO)C(=O)N[C@H](C(=O)N1CCC[C@H]1C(=O)N[C@H](C(=O)NCC(=O)N[C@@H](CO)C(=O)N[C@@H](CC(N)=O)C(=O)N[C@H](C(=O)N[C@@H](Cc1ccc(O)cc1)C(N)=O)[C@@H](C)O)C(C)C)[C@@H](C)O, also called compound 61) | 0.051 | 10.9 | 0.554
4 | K([AEEA-γGlu-C20 diacid])CNTATCATQRLAKFLRHSSPNFGAIPSSTPVGSNTY-NH2 (disulfide 2-7; N-terminus assumed; SMILES CC[C@H](C)[C@H](NC(=O)[C@H](C)NC(=O)CNC(=O)[C@H](Cc1ccccc1)NC(=O)[C@H](CC(N)=O)NC(=O)[C@@H]1CCCN1C(=O)[C@H](CO)NC(=O)[C@H](CO)NC(=O)[C@H](Cc1c[nH]cn1)NC(=O)[C@H](CCCNC(=N)N)NC(=O)[C@H](CC(C)C)NC(=O)[C@H](Cc1ccccc1)NC(=O)[C@H](CCCCN)NC(=O)[C@H](C)NC(=O)[C@H](CC(C)C)NC(=O)[C@H](CCCNC(=N)N)NC(=O)[C@H](CCC(N)=O)NC(=O)[C@@H](NC(=O)[C@H](C)NC(=O)[C@@H]1CSSC[C@H](NC(=O)[C@@H](N)CCCCNC(=O)COCCOCCNC(=O)CC[C@H](NC(=O)CCCCCCCCCCCCCCCCCCC(=O)O)C(=O)O)C(=O)N[C@@H](CC(N)=O)C(=O)N[C@@H]([C@@H](C)O)C(=O)N[C@@H](C)C(=O)N[C@@H]([C@@H](C)O)C(=O)N1)[C@@H](C)O)C(=O)N1CCC[C@H]1C(=O)N[C@@H](CO)C(=O)N[C@@H](CO)C(=O)N[C@H](C(=O)N1CCC[C@H]1C(=O)N[C@H](C(=O)NCC(=O)N[C@@H](CO)C(=O)N[C@@H](CC(N)=O)C(=O)N[C@H](C(=O)N[C@@H](Cc1ccc(O)cc1)C(N)=O)[C@@H](C)O)C(C)C)[C@@H](C)O, also called compound 74) | 0.666 | 56.3 | 37.5

The next lines start with the values.

Row | hAmylin-R funct. EC50 [1] [nM] | Ratio hCT/hAmylin funct. (hCTR EC50 against hAmylin-R EC50) [2] | hCTR funct. EC50 [2] [nM] | Binder
5 | 0.038 | 17.4 | 0.662 | K([AEEA-γGlu-C20 diacid])CNTATCATQRLANFLRHSSPNFGAIPSSTNVGPNTY-NH2 (disulfide 2-7; N-terminus assumed; SMILES CC[C@H](C)[C@H](NC(=O)[C@H](C)NC(=O)CNC(=O)[C@H](Cc1ccccc1)NC(=O)[C@H](CC(N)=O)NC(=O)[C@@H]1CCCN1C(=O)[C@H](CO)NC(=O)[C@H](CO)NC(=O)[C@H](Cc1c[nH]cn1)NC(=O)[C@H](CCCNC(=N)N)NC(=O)[C@H](CC(C)C)NC(=O)[C@H](Cc1ccccc1)NC(=O)[C@H](CC(N)=O)NC(=O)[C@H](C)NC(=O)[C@H](CC(C)C)NC(=O)[C@H](CCCNC(=N)N)NC(=O)[C@H](CCC(N)=O)NC(=O)[C@@H](NC(=O)[C@H](C)NC(=O)[C@@H]1CSSC[C@H](NC(=O)[C@@H](N)CCCCNC(=O)COCCOCCNC(=O)CC[C@H](NC(=O)CCCCCCCCCCCCCCCCCCC(=O)O)C(=O)O)C(=O)N[C@@H](CC(N)=O)C(=O)N[C@@H]([C@@H](C)O)C(=O)N[C@@H](C)C(=O)N[C@@H]([C@@H](C)O)C(=O)N1)[C@@H](C)O)C(=O)N1CCC[C@H]1C(=O)N[C@@H](CO)C(=O)N[C@@H](CO)C(=O)N[C@H](C(=O)N[C@@H](CC(N)=O)C(=O)N[C@H](C(=O)NCC(=O)N1CCC[C@H]1C(=O)N[C@@H](CC(N)=O)C(=O)N[C@H](C(=O)N[C@@H](Cc1ccc(O)cc1)C(N)=O)[C@@H](C)O)C(C)C)[C@@H](C)O, also called compound 50)
6 | 0.056 | 9.4 | 0.527 | K([AEEA-γGlu-C20 diacid])CNTATCATQRLAGFLRHSSPNFGAIPSSTPVGSNTY-NH2 (disulfide 2-7; N-terminus assumed; SMILES CC[C@H](C)[C@H](NC(=O)[C@H](C)NC(=O)CNC(=O)[C@H](Cc1ccccc1)NC(=O)[C@H](CC(N)=O)NC(=O)[C@@H]1CCCN1C(=O)[C@H](CO)NC(=O)[C@H](CO)NC(=O)[C@H](Cc1c[nH]cn1)NC(=O)[C@H](CCCNC(=N)N)NC(=O)[C@H](CC(C)C)NC(=O)[C@H](Cc1ccccc1)NC(=O)CNC(=O)[C@H](C)NC(=O)[C@H](CC(C)C)NC(=O)[C@H](CCCNC(=N)N)NC(=O)[C@H](CCC(N)=O)NC(=O)[C@@H](NC(=O)[C@H](C)NC(=O)[C@@H]1CSSC[C@H](NC(=O)[C@@H](N)CCCCNC(=O)COCCOCCNC(=O)CC[C@H](NC(=O)CCCCCCCCCCCCCCCCCCC(=O)O)C(=O)O)C(=O)N[C@@H](CC(N)=O)C(=O)N[C@@H]([C@@H](C)O)C(=O)N[C@@H](C)C(=O)N[C@@H]([C@@H](C)O)C(=O)N1)[C@@H](C)O)C(=O)N1CCC[C@H]1C(=O)N[C@@H](CO)C(=O)N[C@@H](CO)C(=O)N[C@H](C(=O)N1CCC[C@H]1C(=O)N[C@H](C(=O)NCC(=O)N[C@@H](CO)C(=O)N[C@@H](CC(N)=O)C(=O)N[C@H](C(=O)N[C@@H](Cc1ccc(O)cc1)C(N)=O)[C@@H](C)O)C(C)C)[C@@H](C)O, also called compound 71)

Reference: patent US20140087995A1 (published 2014)
